Literature values in PMC10747851.
pKd: −log10 of the molar value.

Biological target: TfR (Homo sapiens) (UniProt P02786)
Sequence (P02786 89-760): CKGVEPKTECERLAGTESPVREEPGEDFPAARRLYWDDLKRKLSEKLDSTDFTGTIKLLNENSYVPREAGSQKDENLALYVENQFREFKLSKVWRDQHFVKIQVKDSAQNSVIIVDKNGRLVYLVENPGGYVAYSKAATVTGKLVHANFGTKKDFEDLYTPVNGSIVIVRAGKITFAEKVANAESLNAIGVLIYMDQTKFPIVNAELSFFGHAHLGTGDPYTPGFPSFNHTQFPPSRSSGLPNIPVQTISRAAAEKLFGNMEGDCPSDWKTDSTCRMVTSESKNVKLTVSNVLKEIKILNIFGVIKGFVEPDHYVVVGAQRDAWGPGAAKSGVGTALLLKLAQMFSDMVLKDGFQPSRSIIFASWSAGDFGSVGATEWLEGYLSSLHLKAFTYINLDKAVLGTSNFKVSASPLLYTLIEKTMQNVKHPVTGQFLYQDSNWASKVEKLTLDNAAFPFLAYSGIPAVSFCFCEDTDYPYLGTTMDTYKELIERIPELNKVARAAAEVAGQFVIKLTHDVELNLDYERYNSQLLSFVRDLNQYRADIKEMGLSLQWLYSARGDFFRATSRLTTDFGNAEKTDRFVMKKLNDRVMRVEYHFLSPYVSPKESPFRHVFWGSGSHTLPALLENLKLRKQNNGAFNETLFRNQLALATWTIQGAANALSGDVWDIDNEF

- pKd: 8.00
Substance: T7 peptide
